In patent publication US8591913B2, “Methods of decreasing adipose tissue” (Toru Miyazaki, priority 2009, dated 2013):

Experiments:
[1] = tested on: 3T3-L1 preadipocytes; experiment: Differentiation of 3T3-L1 preadipocytes into mature adipocytes, oil-red-o staining; assay type: cell-based, mouse; settings: AIM concentration reduced to 1 μg/mL and 0.1 μg/mL; data not shown
[2] = tested on: 3T3-L1 cells; experiment: Expression of genes associated with adipocyte differentiation, quantitative RT-PCR; assay type: cell-based; settings: mouse AIM
Method: The cells cultured in the above-mentioned five schedules (a) to (e) in Examples 2 and 3 above were collected on the 10th day (day 12) after the initiation of the stimuli for differentiation induction, and the expression of genes associated with adipose differentiation was analyzed using quantitative RT-PCR (QPCR).

[3] = tested on: FAS domains; experiment: Co-immunoprecipitation of FLAG-tagged FAS regions with HA-tagged AIM in HEK293T cells; assay type: binding; settings: HA-tagged mouse AIM
Text: Further, it was attempted to map a binding region of FAS to AIM. FAS has the following distinct seven functional domains, i.e., ketoacyl synthase (KS), malonyl/acetyl transferase (MAT), dehydrase (DH), enoylreductase (ER), ketoreductase (KR), acyl carrier protein (ACP), and thioesterase (TE), as illustrated in FIG. 34A. There is a central core (CC) between the DH domain and the ER domain. It is believed that the central core has no known catalytic function and plays a structural role in stabilization of the dimer. FIG. 34A illustrates FAS dimerized through head-to-tail interaction and major functions of its respective regions.
Thus, an association of each region in FAS tagged with FLAG with AIM tagged with HA was examined by a co-precipitation study. That is, each domain from FAS tagged with FLAG at the N terminus was expressed in HEK293T cells in which mouse AIM tagged with HA was stably expressed. Then, the association of each region with AIM was examined by a co-immunoprecipitation study using an anti-FLAG antibody and an anti-HA antibody. However, AIM was not bound to an N terminal region including the KS and MAT domains (see FIG. 34A) involved in initial acyl chain assembly (i.e., condensation of acetyl group and malonyl group to 3-ketobutyryl-ACP associated with release of carbon dioxide). Therefore, it was thought that AIM affected elongation of a fatty acid chain (which involves ER and DH) and the release of synthesized palmitate (which depends on TE). Over-expression of ER or KR led to death of many cells. This caused the reduction of the signals in WB using the cell lysates of them [lower panel in FIG. 34B, lanes: ER and KR).

[4] = biological target: T1, CD36 (Mus musculus, UniProt Q08857); experiment: Internalization of AIM into 3T3-L1 adipocytes with or without CD36 neutralizing antibody; assay type: cell-based
T1 construct: endogenous in cells; host or cells: differentiated 3T3-L1 adipocytes
T1 sequence (Q08857 whole entry): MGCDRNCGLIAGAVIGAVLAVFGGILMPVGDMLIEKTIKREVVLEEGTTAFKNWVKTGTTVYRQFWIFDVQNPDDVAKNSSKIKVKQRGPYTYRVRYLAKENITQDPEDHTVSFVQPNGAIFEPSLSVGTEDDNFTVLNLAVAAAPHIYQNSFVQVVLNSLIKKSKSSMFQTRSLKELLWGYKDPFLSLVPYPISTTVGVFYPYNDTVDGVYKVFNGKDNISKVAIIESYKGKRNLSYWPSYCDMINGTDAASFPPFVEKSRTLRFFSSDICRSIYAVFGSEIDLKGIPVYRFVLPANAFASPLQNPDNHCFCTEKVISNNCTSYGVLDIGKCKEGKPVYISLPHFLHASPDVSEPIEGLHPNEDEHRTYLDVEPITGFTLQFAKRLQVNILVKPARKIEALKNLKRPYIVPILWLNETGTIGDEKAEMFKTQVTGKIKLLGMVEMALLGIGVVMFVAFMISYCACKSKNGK
Method: Further, in order to confirm that AIM is internalized via CD36, a neutralizing antibody which inhibited the binding of a ligand to CD36 was simultaneously loaded when the 3T3-L1 adipocyte differentiated by the above-mentioned differentiation induction was loaded with AIM. Subsequently, the cultured 3T3-L1 adipocytes were collected, and stained using an anti-AIM antibody. The 3T3-L1 adipocytes loaded with AIM alone without loading the neutralizing antibody against CD36 were cultured and stained in the same manner as described above.

[5] = tested on: 3T3-L1 cells; experiment: Endocytosis of AIM into differentiated 3T3-L1 cells (confocal and immunoelectron microscopy); assay type: cell-based, mouse
Method: Subsequently, the cells were collected, and intracellularly stained using an anti-AIM antibody. Further, nuclei in the cells were stained using DAPI.
FIG. 16A and FIG. 16B show immunoelectron micrographs of the cells cultured for 3 hours (3 hr) and 12 hours (overnight) after being loaded with AIM, respectively.

[6] = biological target: T2, FAS (Mus musculus, UniProt P19096); experiment: FAS enzyme activity in lysates of loaded 3T3-L1 cells (malonyl-CoA consumption); assay type: cell-based; settings: mouse AIM 5 μg/mL
T2 construct: cell lysates were prepared, and the enzyme activity of FAS was measured; endogenous in cells; host or cells: 3T3-L1 cells (differentiating or differentiated)
T2 sequence (P19096 whole entry): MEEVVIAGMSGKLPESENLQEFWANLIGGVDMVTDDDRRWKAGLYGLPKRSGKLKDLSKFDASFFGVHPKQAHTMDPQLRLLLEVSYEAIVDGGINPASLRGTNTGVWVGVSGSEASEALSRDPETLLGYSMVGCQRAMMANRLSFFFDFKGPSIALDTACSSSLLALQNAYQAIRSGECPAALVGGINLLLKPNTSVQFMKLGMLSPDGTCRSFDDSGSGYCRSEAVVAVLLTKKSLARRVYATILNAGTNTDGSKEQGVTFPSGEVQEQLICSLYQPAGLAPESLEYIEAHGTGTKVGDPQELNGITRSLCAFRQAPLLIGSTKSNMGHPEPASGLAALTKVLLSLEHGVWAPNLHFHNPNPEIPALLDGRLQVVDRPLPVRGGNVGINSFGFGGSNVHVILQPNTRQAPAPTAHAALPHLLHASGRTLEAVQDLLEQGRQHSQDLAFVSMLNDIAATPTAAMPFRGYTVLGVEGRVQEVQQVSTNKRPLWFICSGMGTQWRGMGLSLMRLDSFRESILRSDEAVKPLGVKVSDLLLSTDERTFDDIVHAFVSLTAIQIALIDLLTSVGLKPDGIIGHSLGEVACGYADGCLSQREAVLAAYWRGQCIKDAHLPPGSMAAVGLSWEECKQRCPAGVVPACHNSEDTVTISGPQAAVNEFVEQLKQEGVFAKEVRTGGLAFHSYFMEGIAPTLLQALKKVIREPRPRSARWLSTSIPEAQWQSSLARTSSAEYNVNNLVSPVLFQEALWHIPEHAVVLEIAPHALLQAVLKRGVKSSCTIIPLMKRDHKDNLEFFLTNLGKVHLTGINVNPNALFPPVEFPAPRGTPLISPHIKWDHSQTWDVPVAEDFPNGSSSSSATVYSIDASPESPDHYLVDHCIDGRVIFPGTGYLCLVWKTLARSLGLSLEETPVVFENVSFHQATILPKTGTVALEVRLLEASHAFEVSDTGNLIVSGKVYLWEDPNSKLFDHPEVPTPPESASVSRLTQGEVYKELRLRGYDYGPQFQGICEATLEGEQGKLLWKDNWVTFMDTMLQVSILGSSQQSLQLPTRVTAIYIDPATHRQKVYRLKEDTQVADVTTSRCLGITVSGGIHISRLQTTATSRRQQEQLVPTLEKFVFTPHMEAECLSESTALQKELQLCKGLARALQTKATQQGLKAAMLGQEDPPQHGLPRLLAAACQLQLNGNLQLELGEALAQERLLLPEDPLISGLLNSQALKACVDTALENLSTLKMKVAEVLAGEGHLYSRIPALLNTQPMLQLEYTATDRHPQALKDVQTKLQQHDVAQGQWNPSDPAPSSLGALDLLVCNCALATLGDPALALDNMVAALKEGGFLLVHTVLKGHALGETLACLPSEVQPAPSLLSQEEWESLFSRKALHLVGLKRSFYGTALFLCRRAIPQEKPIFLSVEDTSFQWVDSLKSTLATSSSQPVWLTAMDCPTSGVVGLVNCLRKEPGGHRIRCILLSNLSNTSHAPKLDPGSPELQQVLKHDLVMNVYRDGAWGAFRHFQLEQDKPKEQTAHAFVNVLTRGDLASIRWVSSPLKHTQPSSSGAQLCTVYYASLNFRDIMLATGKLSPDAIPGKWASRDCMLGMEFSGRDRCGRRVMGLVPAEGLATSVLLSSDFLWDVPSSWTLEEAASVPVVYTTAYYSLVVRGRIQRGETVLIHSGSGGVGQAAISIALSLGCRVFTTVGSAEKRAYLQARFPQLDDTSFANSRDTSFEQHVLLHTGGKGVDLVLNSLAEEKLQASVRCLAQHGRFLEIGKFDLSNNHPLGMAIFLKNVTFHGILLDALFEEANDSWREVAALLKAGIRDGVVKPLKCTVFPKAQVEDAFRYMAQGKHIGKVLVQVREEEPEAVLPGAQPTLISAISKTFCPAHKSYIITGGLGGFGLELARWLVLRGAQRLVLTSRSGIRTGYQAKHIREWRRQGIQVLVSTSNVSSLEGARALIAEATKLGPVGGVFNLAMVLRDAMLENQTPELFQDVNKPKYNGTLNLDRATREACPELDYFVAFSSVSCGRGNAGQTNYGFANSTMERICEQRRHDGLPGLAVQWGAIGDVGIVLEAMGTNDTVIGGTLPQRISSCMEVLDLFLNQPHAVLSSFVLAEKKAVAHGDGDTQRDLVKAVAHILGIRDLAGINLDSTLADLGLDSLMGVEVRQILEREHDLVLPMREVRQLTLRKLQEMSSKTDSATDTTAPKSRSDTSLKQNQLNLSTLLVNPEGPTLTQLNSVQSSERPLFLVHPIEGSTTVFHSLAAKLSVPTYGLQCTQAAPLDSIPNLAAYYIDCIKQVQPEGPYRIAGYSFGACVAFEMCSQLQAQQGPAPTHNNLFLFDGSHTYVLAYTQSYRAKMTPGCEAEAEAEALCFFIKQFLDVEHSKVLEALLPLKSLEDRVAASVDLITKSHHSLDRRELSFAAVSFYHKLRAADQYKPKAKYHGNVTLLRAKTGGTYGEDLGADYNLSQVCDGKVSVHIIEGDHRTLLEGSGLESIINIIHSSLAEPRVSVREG
Method: Whether AIM affected an enzyme activity of FAS or not was examined.
In addition, as a schedule (f) similar to the above-mentioned schedule (e), AIM was loaded for 4 days (day 8 to day 12) after the 3T3-L1 cells differentiated, subsequently the cells were collected on the 10th day (day 12) after the initiation of the differentiation induction, cell lysates were prepared, and the enzyme activity of FAS was measured. The enzyme activity of FAS was measured based on a consumption amount of malonyl-CoA.
In addition, using a FAS inhibitor (C75) in place of AIM, the FAS inhibitor at a concentration of 25 μM was loaded according to the schedules (d) and (f), and as was the case with the above-mentioned AIM, the cells were collected on the 2nd day (day 4: schedule (d)) and 10th day (day 12: schedule (f)) after the initiation of the differentiation induction, and the enzyme activity of FAS was measured.
Further, for comparison, the cells cultured without loading AIM in the above-mentioned schedule (a) were also collected at times of the 2nd day (day 4) and 10th day (day 12) after the initiation of the differentiation induction, and the enzyme activity of FAS was measured.
FIG. 11B and FIG. 11C illustrate the results of measuring the FAS enzyme activity (Fatty acid synthase activity) (nmol NADPH/min/mg protein). FIG. 11B illustrates the results obtained on the 2nd day (day 4) after the initiation of the differentiation induction in the case of loading no AIM according to the schedule (a) (None), the case of loading AIM according to the schedule (d) (AIM (5 μg/mL)), and the case of loading the FAS inhibitor according to the schedule (d) (C75 (25 μM)). FIG. 11C illustrates the results obtained on the 10th day (day 12) after the initiation of the differentiation induction in the case of loading no AIM according to the schedule (a) (None), the case of loading AIM according to the schedule (f) (AIM (5 μg/mL)), and the case of loading the FAS inhibitor according to the schedule (f) (C75 (25 μM)).

[7] = schedule (d): day 2 to day 4, cells collected day 12

B1: AIM: apoptosis inhibitor of macrophage, secretory protein with three SRCR domains; recombinant mouse and human AIM in Example 2, mouse AIM in Examples 3-16 (protein)
chain: ESPTKVQLVGGAHRCEGRVEVEHNGQWGTVCDDGWDRRDVAVVCRELNCGAVIQTPRGASYQPPASEQRVLIQGVDCNGTEDTLAQCELNYYVFDCSHEEDAGAQCENPDSDLLFIPEDVRLVDGPGHCQGRVEVLHQSQWSTVCKAGWNLQVSKVVCRQLGCGRALLTYGSCNKNTQGKGPIWMGKMSCSGQEANLRSCLLSRLENNCTHGEDTWMECEDPFELKLVGGDTPCSGRLEVLHKGSWGSVCDDNWGEKEDQVVCKQLGCGKSLHPSPKTRKIYGPGAGRIWLDDVNCSGKEQSLEFCRHRLWGYHDCTHKEDVEVICTDFDV
With B1 the “differentiation inhibitory effect by AIM” value [1] was “reduced”, the “expression of the C/EBPα gene” value ([2]; schedule (b): day 2 to day 12) was “almost completely inhibited” and the “expression of the CD36 gene” value ([2]; schedule (b): day 2 to day 12) was “almost completely inhibited”. The “expression of the FAS gene” value ([2]; schedule (b): day 2 to day 12) was “slightly increased”, the “expression of the Glut4 gene” value ([2]; schedule (b): day 2 to day 12) was “almost completely inhibited” and the “expression of the PPARγ gene” value ([2]; schedule (b): day 2 to day 12) was “almost completely inhibited”. The “gene expression patterns compared with no AIM” value ([2]; schedule (c): day -2 to day 2) was “not changed”, the “expression of the FAS gene” value ([2]; schedule (d): day 2 to day 4) was “slightly increased” and the “expression of the C/EBPα gene” value [2, 7] was “almost completely inhibited”. For the same molecule, the “expression of the CD36 gene” value [2, 7] was “almost completely inhibited”, the “expression of the Glut4 gene” value [2, 7] was “almost completely inhibited” and the “expression of the PPARγ gene” value [2, 7] was “almost completely inhibited”. The “gene expression patterns compared with no AIM” value ([2]; schedule (e): day 6 to day 12) was “not changed”, the “binding to the CC (central core) domain of FAS” value ([3]; FLAG-tagged domain) was “specifically bound” and the “binding to the DH domain of FAS” value ([3]; FLAG-tagged domain) was “specifically bound”. The “binding to the ER domain of FAS” value ([3]; FLAG-tagged domain) was “specifically bound”, the “binding to the TE domain of FAS” value ([3]; FLAG-tagged domain) was “specifically bound” and the “binding to the N terminal region of FAS including the KS and MAT domains” value ([3]; FLAG-tagged region) was “not bound”. For the same molecule, the “internalization of AIM into the cells” value ([4]; neutralizing antibody against CD36 loaded simultaneously) was “not observed”, the “internalization of AIM into the cells” value ([4]; neutralizing antibody against CD36 not loaded) was “had been internalized into the cells” and the “localisation of AIM, immunoelectron microscope” value ([5]; cells cultured in the presence of AIM for 3 hours) was “accumulated like the dots on the membrane of particles thought to be endosomes”. For the same molecule, the “localisation of AIM, immunoelectron microscope” value ([5]; cells cultured in the presence of AIM for 12 hours) was “migrated therefrom into the cytoplasm”, the “accumulation of AIM on phagosomes, phagolysosomes, or mitochondria” value ([5]; immunoelectron microscope) was “No AIM was accumulated” and the “endocytosis of AIM into the cytoplasm, confocal microscope” value ([5]; mouse AIM 5 μg/mL, 3 hours, day 4 of culture) was “endocytosed like dots”. The “enzyme activity of FAS” value ([6]; schedule (d): day 2 to day 4, cells collected day 4, compared with no AIM) was “remarkably reduced” and the “enzyme activity of FAS” value ([6]; schedule (f): day 8 to day 12, cells collected day 12, compared with no AIM) was “remarkably reduced”.
